# According to PMC5524754, “Angiopoietin-like 4 induces a β-catenin-mediated upregulation of ID3 in fibroblasts to reduce scar collagen expression” (Scientific Reports, 2017):
# T1: Extracellular domain of human CDH11 (Abnova) (human, UniProt P55287 54-617)
# T1 construct: cadherin-11 (CDH11), human, extracellular domain; No catalogue number is printed; also called cadherin-11; immobilized CDH11; source: bought: Abnova
# T1 sequence (looked up): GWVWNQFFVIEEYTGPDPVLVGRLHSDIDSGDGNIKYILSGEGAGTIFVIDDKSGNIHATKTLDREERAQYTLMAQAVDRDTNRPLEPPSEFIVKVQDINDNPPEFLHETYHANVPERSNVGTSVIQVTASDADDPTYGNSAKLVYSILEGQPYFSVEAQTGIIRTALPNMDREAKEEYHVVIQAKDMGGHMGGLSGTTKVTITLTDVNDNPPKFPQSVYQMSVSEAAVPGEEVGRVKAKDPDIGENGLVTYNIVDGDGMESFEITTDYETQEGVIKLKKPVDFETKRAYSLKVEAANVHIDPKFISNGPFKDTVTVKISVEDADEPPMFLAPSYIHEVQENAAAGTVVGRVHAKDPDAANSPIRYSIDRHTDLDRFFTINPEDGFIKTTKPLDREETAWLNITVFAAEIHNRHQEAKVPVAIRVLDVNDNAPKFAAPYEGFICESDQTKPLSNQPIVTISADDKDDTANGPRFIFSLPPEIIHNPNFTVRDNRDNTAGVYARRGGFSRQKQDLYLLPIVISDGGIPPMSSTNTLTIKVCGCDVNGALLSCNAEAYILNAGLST
# Target: T1, Extracellular domain of human CDH11 …
# Assay: SPR; BIACore 3000; extracellular domain of human CDH11 immobilised on a CM5 chip by amine coupling; PBS running buffer; cANGPTL4 injected at 28.6, 14.3, 7.15, 3.58 and 1.79 nM, 10 uL/min; Langmuir 1:1 model
# Details: both partners purified
binder,measurement,value
"recombinant human cANGPTL4 (C-terminal fibrinogen-like domain of angiopoietin-like 4) (domain or fragment, UniProt Q9BY76 179-401, looked up, angiopoietin-like 4 (ANGPTL4), human, C-terminal fibrinogen-like domain (cANGPTL4); also called recombinant cANGPTL4 protein; source: purified protein for SPR, added to fibroblast cultures and applied to wounds) SRLHRLPRDCQELFQVGERQSGLFEIQPQGSPPFLVNCKMTSDGGWTVIQRRHDGSVDFNRPWEAYKAGFGDPHGEFWLGLEKVHSITGDRNSRLAVQLRDWDGNAELLQFSVHLGGEDTAYSLQLTAPVAGQLGATTVPPSGLSVPFSTWDQDHDLRRDKNCAKSLSGGWWFGTCSHSNLNGQYFRSIPQQRQKLKKGIFWKTWRGRYYPLQATTMLIQPMA",Kd,42.8 nM
